Measurements: patent US20140148397A1 (University of California, published 2014)
Ends that are not written are not given here.

B1: AgRP(87-120) (peptide)
peptide: Ac-CVRLHESCLGQQVPCCDPAATCYCRFFNAFCYCR-NH2
modifications: disulfide (positions not given here); not fully specified; also: oxidatively folded, disulfide pairing not given here
B2: AgRP(83-120) (peptide)
peptide: SSRRCVRLHESCLGQQVPCCDPAATCYCRFFNAFCYCR-NH2
modifications: disulfide (positions not given here); not fully specified; also: oxidatively folded, disulfide pairing not given here

Experiments:
hMC3R = hMC3R (human, UniProt P41968 1-323); assay: cell-based or functional assay
hMC4R = hMC4R (human, UniProt P32245 1-332); assay: cell-based or functional assay
Chain of hMC4R (P32245 whole entry): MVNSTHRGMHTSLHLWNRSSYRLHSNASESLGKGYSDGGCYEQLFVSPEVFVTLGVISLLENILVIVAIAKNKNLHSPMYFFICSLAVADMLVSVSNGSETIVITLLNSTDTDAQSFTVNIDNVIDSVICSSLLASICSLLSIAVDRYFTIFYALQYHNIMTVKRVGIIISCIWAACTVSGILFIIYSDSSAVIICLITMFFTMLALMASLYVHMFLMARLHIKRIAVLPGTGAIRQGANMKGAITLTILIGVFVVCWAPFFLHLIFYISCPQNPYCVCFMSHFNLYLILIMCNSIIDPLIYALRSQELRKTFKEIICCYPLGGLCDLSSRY

Chain of hMC3R (P41968 whole entry): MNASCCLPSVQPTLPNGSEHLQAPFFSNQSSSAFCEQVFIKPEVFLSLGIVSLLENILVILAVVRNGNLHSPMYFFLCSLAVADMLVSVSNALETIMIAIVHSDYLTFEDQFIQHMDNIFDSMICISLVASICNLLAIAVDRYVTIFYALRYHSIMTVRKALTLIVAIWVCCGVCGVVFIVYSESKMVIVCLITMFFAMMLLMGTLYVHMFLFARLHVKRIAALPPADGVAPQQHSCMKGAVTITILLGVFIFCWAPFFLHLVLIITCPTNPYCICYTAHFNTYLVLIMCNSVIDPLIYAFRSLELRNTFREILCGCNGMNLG

Row | Binder | EC50 (nM), NDP-MSH stimulated cAMP production in the presence of 0.10 µM AgRP protein (hMC3R) | EC50 (nM), NDP-MSH stimulated cAMP production in the presence of 0.10 µM AgRP protein (hMC4R)
1 | B1 | 5.5 nM | 
2 | B2 | 2.96 nM | 4.92 nM
3 | SSRRCVRLHESCLGQQVPCCDPCATCYCRFFNAFCYCRQLGTAMNPCSQT-NH2 (disulfide (positions not given here)) [AgRP-2Q] | 9.22 nM | 6.66 nM
4 | SSRRCVRLHESCLGQQVPCCDPCATCYCRFFNAFCYCRKLKTKMNPCSRT-NH2 (disulfide (positions not given here)) [AgRP-2K] | 16.1 nM | 4.54 nM
5 | SSQQCVRLHESCLGQQVPCCDPCATCYCRFFNAFCYCRQLGTAMNPCSQT-NH2 (disulfide (positions not given here)) [AgRP-4Q] | 1.62 nM | 1.8 nM
6 | KKRRCVRLHESCLGQQVPCCDPCATCYCRFFNAFCYCRKLKTKMNPCSRT-NH2 (disulfide (positions not given here)) [AgRP-4K] | 2.66 nM | 1.72 nM
